This note sets out measurements from article PMC6220335, “Molecular structure of promoter-bound yeast TFIID” (Nature Communications, 2018).

Holding throughout (experiment): cross-linking; 50 µg purified TFIID, 3 mM BS3, 2 h at 25 °C; trypsin, SCX fractionation, Orbitrap Fusion MS; pLink and Nexus, 5% FDR
Details in all cases: both partners purified

Test [1] has as its target T1, Taf8, subunit of Komagataella phaffii TFIID (Komagataella phaffii, UniProt F2QT15 1-517).
T1 construct: Taf8, TFIID subunit of the yeast Komagataella phaffii (formerly Pichia pastoris); putative helices placed in the cryo-EM map; also called KpTaf8; source: endogenous, K. phaffii nuclear extract; co-purified in TFIID by SBP-tagged Taf2 (streptavidin beads, sucrose gradient)
T1 sequence (looked up): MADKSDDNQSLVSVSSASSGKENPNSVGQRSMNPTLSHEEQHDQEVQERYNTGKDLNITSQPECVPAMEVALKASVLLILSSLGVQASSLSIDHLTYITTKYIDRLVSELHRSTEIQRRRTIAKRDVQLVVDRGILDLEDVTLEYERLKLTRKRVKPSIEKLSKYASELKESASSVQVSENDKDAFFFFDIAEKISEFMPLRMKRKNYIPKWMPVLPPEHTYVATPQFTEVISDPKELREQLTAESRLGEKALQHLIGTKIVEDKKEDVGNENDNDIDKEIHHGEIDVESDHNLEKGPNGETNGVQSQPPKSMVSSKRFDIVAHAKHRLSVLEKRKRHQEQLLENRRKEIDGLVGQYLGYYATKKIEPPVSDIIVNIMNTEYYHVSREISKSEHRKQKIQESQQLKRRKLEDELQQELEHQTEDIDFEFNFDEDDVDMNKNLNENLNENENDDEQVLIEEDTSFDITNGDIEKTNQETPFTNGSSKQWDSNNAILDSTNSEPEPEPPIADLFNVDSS

The target in test [2] is T2, Taf2 with C-terminal streptavidin-binding peptide tag, subunit of Komagataella phaffii TFIID (Komagataella phaffii, UniProt F2QRH9 1-1571).
T2 construct: Taf2, TFIID subunit of the yeast Komagataella phaffii (formerly Pichia pastoris); residues 36 to 1194 modelled in the cryo-EM map; bait of the purification; also called SBP-tagged Taf2; source: K. phaffii strain with SBP-tagged Taf2, nuclear extract; purified (streptavidin beads, biotin elution, sucrose gradient)

The target of test [3] is T3, Taf1 (TBP-associated factor 1), subunit of Komagataella phaffii TFIID (Komagataella phaffii, UniProt F2QMX2 1-1010).
T3 construct: Taf1, TFIID subunit of the yeast Komagataella phaffii (formerly Pichia pastoris); native subunit of the purified complex; also called KpTaf1; source: endogenous, K. phaffii nuclear extract; co-purified in TFIID by SBP-tagged Taf2 (streptavidin beads, sucrose gradient)
T3 sequence (looked up): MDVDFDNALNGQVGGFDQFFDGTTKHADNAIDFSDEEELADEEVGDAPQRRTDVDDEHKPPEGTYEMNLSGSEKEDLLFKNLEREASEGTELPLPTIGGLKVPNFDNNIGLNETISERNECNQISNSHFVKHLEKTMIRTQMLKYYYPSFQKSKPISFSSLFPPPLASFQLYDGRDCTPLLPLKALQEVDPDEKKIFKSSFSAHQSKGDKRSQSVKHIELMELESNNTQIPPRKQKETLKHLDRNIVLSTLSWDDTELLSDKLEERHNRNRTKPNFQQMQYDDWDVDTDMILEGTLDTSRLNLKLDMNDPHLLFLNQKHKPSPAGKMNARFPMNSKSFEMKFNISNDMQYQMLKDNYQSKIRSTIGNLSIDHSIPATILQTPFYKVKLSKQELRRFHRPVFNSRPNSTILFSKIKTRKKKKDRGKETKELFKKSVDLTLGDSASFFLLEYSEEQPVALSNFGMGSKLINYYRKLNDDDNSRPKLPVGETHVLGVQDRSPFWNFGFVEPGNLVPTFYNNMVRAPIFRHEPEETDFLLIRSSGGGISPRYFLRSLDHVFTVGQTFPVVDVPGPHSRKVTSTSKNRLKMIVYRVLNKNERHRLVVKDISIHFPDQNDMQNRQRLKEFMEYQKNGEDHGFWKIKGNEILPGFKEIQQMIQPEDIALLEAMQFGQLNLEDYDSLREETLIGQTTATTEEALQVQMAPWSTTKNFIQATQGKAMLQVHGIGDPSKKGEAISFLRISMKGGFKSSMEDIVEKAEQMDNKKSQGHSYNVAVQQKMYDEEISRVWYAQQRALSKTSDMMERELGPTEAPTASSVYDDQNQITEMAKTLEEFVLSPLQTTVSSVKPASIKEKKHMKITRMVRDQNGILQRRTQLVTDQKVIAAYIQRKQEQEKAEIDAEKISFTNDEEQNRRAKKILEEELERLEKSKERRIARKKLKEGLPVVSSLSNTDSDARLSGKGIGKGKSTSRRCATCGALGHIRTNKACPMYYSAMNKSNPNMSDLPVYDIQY

For test [4], the target named is T4, Taf11, subunit of Komagataella phaffii TFIID (Komagataella phaffii, UniProt F2QRB1 1-281).
T4 construct: Taf11, TFIID subunit of the yeast Komagataella phaffii (formerly Pichia pastoris); histone-fold domain modelled in the cryo-EM map; source: endogenous, K. phaffii nuclear extract; co-purified in TFIID by SBP-tagged Taf2 (streptavidin beads, sucrose gradient)
T4 sequence (looked up): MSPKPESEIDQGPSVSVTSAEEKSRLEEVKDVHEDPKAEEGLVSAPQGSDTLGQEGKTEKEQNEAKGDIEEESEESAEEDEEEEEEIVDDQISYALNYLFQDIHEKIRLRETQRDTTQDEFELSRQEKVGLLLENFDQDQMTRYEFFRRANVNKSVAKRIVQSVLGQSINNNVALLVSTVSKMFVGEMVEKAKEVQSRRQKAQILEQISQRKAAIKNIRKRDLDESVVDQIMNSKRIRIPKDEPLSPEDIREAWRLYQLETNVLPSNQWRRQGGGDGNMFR

Test [5] has as its target T5, Taf5, subunit of Komagataella phaffii TFIID (Komagataella phaffii, UniProt F2QWD3 1-722).
T5 construct: Taf5, TFIID subunit of the yeast Komagataella phaffii (formerly Pichia pastoris); WD40 repeat and NTD (residues 99–243) modelled in the cryo-EM map; two copies in holo-TFIID; source: endogenous, K. phaffii nuclear extract; co-purified in TFIID by SBP-tagged Taf2 (streptavidin beads, sucrose gradient)
T5 sequence (looked up): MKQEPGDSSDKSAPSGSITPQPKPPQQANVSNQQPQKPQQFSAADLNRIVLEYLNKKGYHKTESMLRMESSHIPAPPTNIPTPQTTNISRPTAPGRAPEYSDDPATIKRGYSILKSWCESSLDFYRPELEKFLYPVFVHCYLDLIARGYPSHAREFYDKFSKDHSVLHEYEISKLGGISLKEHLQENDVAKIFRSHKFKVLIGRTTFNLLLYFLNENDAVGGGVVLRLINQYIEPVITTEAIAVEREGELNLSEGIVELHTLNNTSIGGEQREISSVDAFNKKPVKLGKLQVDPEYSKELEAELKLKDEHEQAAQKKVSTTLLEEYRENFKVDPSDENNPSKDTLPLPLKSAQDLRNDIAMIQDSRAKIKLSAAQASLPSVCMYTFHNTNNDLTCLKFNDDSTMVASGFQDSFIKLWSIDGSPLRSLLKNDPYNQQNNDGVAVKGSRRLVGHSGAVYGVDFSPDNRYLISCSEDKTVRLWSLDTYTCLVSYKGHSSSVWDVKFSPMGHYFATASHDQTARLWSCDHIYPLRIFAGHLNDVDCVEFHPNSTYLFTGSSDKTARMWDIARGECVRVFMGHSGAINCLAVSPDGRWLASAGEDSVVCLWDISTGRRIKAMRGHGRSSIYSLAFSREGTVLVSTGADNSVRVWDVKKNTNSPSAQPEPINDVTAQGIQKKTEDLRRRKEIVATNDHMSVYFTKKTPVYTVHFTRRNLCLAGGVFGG

B1: Taf10, subunit of Komagataella phaffii TFIID (natural protein, UniProt F2QLJ9 1-217, looked up)
chain: MSTEKLFEDLDEDSLMQDVEGGVEGSMTIEEEPEPNDEKEAPHISMPSLPEYTRKDKTLEEILEMMEDEEFTPIIPDAVTDYYLAKNGFETSDIKIKRILALATQKFISDIAQDAYEYSRIRSSSSVYTSANPQARARQLVAGQQQQQQQQPQQQQQQQPQTGASQPAPTVGGSGGGGGGGGGTSTGTNNKVVLTMDDLRSALGEYGINVKRPNFYR
notes: Taf10, TFIID subunit of the yeast Komagataella phaffii (formerly Pichia pastoris); source: endogenous, K. phaffii nuclear extract; co-purified in TFIID by SBP-tagged Taf2 (streptavidin beads, sucrose gradient)
In the case of B1, the binding result in test [1] was “binds”.

B2: Taf7, subunit of Komagataella phaffii TFIID (natural protein, UniProt F2QXR8 1-460, looked up)
chain: MIKLKLHTDKKQNTVERRPKIKVKPPINKPESTVIPRIRVKPTRIAGDGYDSEDPDREDDPTTEEAIVMRIVPNDYSLEYVKKCVEQGDFSEISLQWKDKRRAVLRLKDRLYGAKLVDLPTMVEIHKTIDRKNIFKTMDVSQILLVIKELKYESEYLDIQLTASETFDDGLTPPLRGVKKRFDKRMTSKVFQIIEEQVDELFRLDEEAEASKYELVDTEAGTIPSFDADASTPNTKEFTVRGHLDVEDNEDLELELEQAFQQQSDTPLNPQQRSKGGRKTNDSDAHVRFYEQEEEDDEDEETFELKRVCSAEAKVEEGEEEAEEETEETEDDEDDDDEEVVGGKEIISGQRAGIDERLTHTQIIKEEIEELQATIGLKQSDFNKASNPIMKNRISDVIGRLKAELETKLRQVEMEQKEQQNNSNVTSHNIYQQRELDEDEDEDDDEDGDEDDDDDMEDLF
notes: Taf7, TFIID subunit of the yeast Komagataella phaffii (formerly Pichia pastoris); source: endogenous, K. phaffii nuclear extract; co-purified in TFIID by SBP-tagged Taf2 (streptavidin beads, sucrose gradient)
For the molecule B2, the binding result in test [2] and in test [3] was “binds” throughout.

B3: Taf9, subunit of Komagataella phaffii TFIID (natural protein, UniProt F2QTW3 1-153, looked up)
chain: MTNEQAAIPRDVRLLHLIFATQNIYSYQDHVPLQLMDFAYRYTTGTLQDATIYSDHAHASGSHISNAGNAGTNAQLTTEDIRLAIAARTNYQFKPVPPKELLLELAAERNKKPLPAVIPTWGIRLPPEKYCLTGKDWVLEDEEEAVSYKKRKT
notes: Taf9, TFIID subunit of the yeast Komagataella phaffii (formerly Pichia pastoris); histone-fold domain modelled in the cryo-EM map; source: endogenous, K. phaffii nuclear extract; co-purified in TFIID by SBP-tagged Taf2 (streptavidin beads, sucrose gradient)
Turning to B3, the binding result in test [4] and in test [5] was “binds” each time.
